This experiment concerns the target LrsL (quorum quenching lactonase of Labrenzia sp. VG12), recombinant catalytic domain without the N-terminal 47 residues (Labrenzia sp. VG12). The experiment can be described thus: SEC-MALS; Superdex 200 10/300; 5.5 mg/ml LrsL injected; 20 mM HEPES, pH 7.5, 200 mM NaCl, 1 mM TCEP, 0.01% NaN3. On the technique in general: Size exclusion chromatography separates by hydrodynamic size, large species first.

One may read the stoichiometry N as a count of units in the complex or per binding partner.

On to “LrsL (quorum quenching lactonase of Labrenzia sp. VG12), recombinant catalytic domain without the N-terminal 47 residues (enzyme)”, for which the stoichiometry N came out at 2.

Source of the values: publication PMC9441902.
